Target: β-klotho (KLB)
Assay: cell-based or functional assay

FGF21 activity (EC50, nM): 0.12 nM
Substance: Natural FGF21 (from UniProt Q9NSA1 29-209) (ligand)
